The target in the assay is GST-Pirh2 (construct of Figures S5 and S12 not stated) (human) (UniProt Q96PM5). Nature of the assay: AlphaScreen or HTRF. (Alpha assays give light when donor and acceptor beads are brought close together.)

Consider one substance from PMC10591846.

As usually defined, the IC50 is the concentration at which inhibition is half-maximal. High values mean a need for much substance, low ones inhibition by little substance.

GST-Pirh2 (construct of Figures S5 and S12 not stated) (human), sequence (Q96PM5 whole entry): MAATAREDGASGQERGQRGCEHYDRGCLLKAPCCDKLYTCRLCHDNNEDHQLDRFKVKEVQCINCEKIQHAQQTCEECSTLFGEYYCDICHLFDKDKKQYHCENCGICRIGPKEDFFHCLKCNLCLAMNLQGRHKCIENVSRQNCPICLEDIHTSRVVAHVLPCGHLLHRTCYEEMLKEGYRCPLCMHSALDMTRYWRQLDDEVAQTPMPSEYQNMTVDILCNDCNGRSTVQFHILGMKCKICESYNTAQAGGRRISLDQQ

B. subtilis SsrA tag (peptide) showed an IC50 of 470 nM.
